Source: ChEMBL document CHEMBL4321793, “Can Cysteine Protease Cross-Class Inhibitors Achieve Selectivity?” (J Med Chem, 2019)

How the values were obtained:
[1] = substrate: N=C(N)NCCC[C@H](NC(=O)[C@H](Cc1ccccc1)NC(=O)OCc1ccccc1)C(=O)Nc1ccc2ccc(=O)oc2c1; assay: (§1) Inhibition of human cathepsin L assessed as ratio of Kcat/Km using Z-Phe-Arg-MCA as substrate by spectrofluorometric method
[2] = substrate: N=C(N)NCCC[C@H](NC(=O)OCc1ccccc1)C(=O)N[C@@H](CCCNC(=N)N)C(=O)Nc1ccc2ccc(=O)oc2c1; assay: as §1
[3] = substrate: N=C(N)NCCC[C@H](NC(=O)[C@H](Cc1ccncc1)NC(=O)OCc1ccccc1)C(=O)Nc1ccc2ccc(=O)oc2c1; assay: as §1
[4] = substrate: N=C(N)NCCC[C@H](NC(=O)[C@H](Cc1ccc(NC(=N)N)cc1)NC(=O)OCc1ccccc1)C(=O)Nc1ccc2ccc(=O)oc2c1; assay: as §1
[5] = compound: N=C(N)NCCC[C@H](NC(=O)[C@H](Cc1ccccc1)NC(=O)OCc1ccccc1)C(=O)Nc1ccc2ccc(=O)oc2c1; assay: (§2) Inhibition of Trypanosoma cruzi cruzipain assessed as ratio of Kcat/Km using Z-Phe-Arg-MCA as substrate by spectrofluorometric method
[6] = compound: N=C(N)NCCC[C@H](NC(=O)OCc1ccccc1)C(=O)N[C@@H](CCCNC(=N)N)C(=O)Nc1ccc2ccc(=O)oc2c1; assay: as §2
[7] = compound: N=C(N)NCCC[C@H](NC(=O)[C@H](Cc1ccncc1)NC(=O)OCc1ccccc1)C(=O)Nc1ccc2ccc(=O)oc2c1; assay: as §2
[8] = compound: N=C(N)NCCC[C@H](NC(=O)[C@H](Cc1ccc(NC(=N)N)cc1)NC(=O)OCc1ccccc1)C(=O)Nc1ccc2ccc(=O)oc2c1; assay: as §2

B1: Procathepsin L (Homo sapiens) (protein)
chain: MNPTLILAAFCLGIASATLTFDHSLEAQWTKWKAMHNRLYGMNEEGWRRAVWEKNMKMIELHNQEYREGKHSFTMAMNAFGDMTSEEFRQVMNGFQNRKPRKGKVFQEPLFYEAPRSVDWREKGYVTPVKNQGQCGSCWAFSATGALEGQMFRKTGRLISLSEQNLVDCSGPQGNEGCNGGLMDYAFQYVQDNGGLDSEESYPYEATEESCKYNPKYSVANDTGFVDIPKQEKALMKAVATVGPISVAIDAGHESFLFYKEGIYFEPDCSSEDMDHGVLVVGYGFESTESDNNKYWLVKNSWGEEWGMGGYVKMAKDRRNHCGIASAASYPTV
Q: With B1 as the protein, how does the kcat/Km [1] read?
A: The kcat/Km was 9.46e+06 M⁻¹ s⁻¹.

Q: And the kcat/Km [2]?
A: The kcat/Km was 37000 M⁻¹ s⁻¹.

Q: What about the kcat/Km [3] of the same protein?
A: The kcat/Km was 818000 M⁻¹ s⁻¹.

Q: What about the kcat/Km [4] of the same protein?
A: Its kcat/Km is 438000 M⁻¹ s⁻¹.

B2: Cruzipain (Trypanosoma cruzi), P25779 (protein)
chain: MSGWARALLLAAVLVVMACLVPAATASLHAEETLTSQFAEFKQKHGRVYESAAEEAFRLSVFRENLFLARLHAAANPHATFGVTPFSDLTREEFRSRYHNGAAHFAAAQERARVPVKVEVVGAPAAVDWRARGAVTAVKDQGQCGSCWAFSAIGNVECQWFLAGHPLTNLSEQMLVSCDKTDSGCSGGLMNNAFEWIVQENNGAVYTEDSYPYASGEGISPPCTTSGHTVGATITGHVELPQDEAQIAAWLAVNGPVAVAVDASSWMTYTGGVMTSCVSEQLDHGVLLVGYNDSAAVPYWIIKNSWTTQWGEEGYIRIAKGSNQCLVKEEASSAVVGGPGPTPEPTTTTTTSAPGPSPSYFVQMSCTDAACIVGCENVTLPTGQCLLTTSGVSAIVTCGAETLTEEVFLTSTHCSGPSVRSSVPLNKCNRLLRGSVEFFCGSSSSGRLADVDRQRRHQPYHSRHRRL
Q: For B2, which kcat/Km [5] is on record?
A: The kcat/Km was 9.67e+06 M⁻¹ s⁻¹.

Q: What about the kcat/Km [6] of the same protein?
A: Its kcat/Km is 395000 M⁻¹ s⁻¹.

Q: And the kcat/Km [7]?
A: The kcat/Km was 6.95e+06 M⁻¹ s⁻¹.

Q: What about the kcat/Km [8] of the same protein?
A: The kcat/Km was 1.1e+06 M⁻¹ s⁻¹.
